In assay [1] the target is T1, wild type (wt) HA-tagged TβR-I (UniProt P36897 34-503, limits assumed).
T1 construct: whole, on cells; also called wild type TβR-I; TGF-β type I receptor
T1 sequence (looked up): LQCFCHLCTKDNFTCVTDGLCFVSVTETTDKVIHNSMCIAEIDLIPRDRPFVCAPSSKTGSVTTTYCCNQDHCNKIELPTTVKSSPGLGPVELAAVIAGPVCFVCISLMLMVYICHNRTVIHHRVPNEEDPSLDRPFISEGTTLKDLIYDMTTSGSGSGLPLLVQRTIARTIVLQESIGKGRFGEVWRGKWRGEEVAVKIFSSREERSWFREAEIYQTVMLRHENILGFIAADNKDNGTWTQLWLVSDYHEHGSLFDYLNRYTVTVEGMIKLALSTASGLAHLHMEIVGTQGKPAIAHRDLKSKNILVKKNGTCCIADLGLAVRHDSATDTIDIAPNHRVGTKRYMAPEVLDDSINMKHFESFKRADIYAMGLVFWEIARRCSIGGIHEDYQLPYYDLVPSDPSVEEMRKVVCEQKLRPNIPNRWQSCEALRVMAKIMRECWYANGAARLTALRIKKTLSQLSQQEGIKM
The experiment in a line: affinity cross-linking with 125I-TGF-β1, anti-FLAG immunoprecipitation from COS-7 lysates, SDS-PAGE and autoradiography. The source says: The interaction of Smad6 with the type I receptors was examined in affinity cross-linking assays. COS-7 cells were transfected with FLAG-tagged Smad6 (F-Smad6) or FLAG-tagged Smad2 (F-Smad2) in combination with the wild type (wt) or kinase-defective (KR) HA-tagged TβR-I and hexahistidine-tagged TβR-II. Cells were affinity labeled with ¹²⁵I-TGF-β1 and lysates were immunoprecipitated with anti-HA antibody or anti-FLAG M2 antibody. Immune complexes were subjected to SDS-PAGE and autoradiography. Smad6 bound to both wild type and kinase-defective TβR-I depending on the kinase activity of TβR-II. […] Similarly to Smad2, the binding of Smad6 to TβR-I required the kinase activity of TβR-II (FIG. 2a). Smad6, however, stably bound to the wild type TβR-I.

For assay [2], the target named is T2, Smad6 (epitope-tagged, heteromerization experiment of Example 4) (mouse, UniProt O35182 1-495).
T2 construct: Whole coding region of mouse Smad6, expressed inside COS-7 cells
T2 sequence: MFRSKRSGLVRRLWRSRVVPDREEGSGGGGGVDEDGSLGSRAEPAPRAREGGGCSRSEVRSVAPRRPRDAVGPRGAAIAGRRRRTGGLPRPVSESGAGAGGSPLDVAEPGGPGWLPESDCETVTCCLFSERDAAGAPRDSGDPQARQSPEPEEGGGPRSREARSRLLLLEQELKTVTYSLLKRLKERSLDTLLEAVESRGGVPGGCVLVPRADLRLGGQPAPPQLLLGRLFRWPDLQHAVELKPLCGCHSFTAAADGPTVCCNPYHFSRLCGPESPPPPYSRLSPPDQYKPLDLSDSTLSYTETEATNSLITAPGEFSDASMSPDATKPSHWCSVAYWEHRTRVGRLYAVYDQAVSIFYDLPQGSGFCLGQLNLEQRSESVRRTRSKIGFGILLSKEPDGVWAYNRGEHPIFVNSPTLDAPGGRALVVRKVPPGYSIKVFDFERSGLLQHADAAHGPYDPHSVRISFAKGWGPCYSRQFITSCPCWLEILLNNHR
The experiment in a line: co-immunoprecipitation and Western blot from transfected COS-7 cells. The source says:
COS-7 cells were transiently transfected using DMRIE-C (Gibco/BRL, Gaithersburg, Md.). [³²P]orthophosphate- or [³⁵]methionine/cysteine-labeling and immunoprecipitation were done as described by Nakao et al. (J. Biol. Chem. 272:2896-2900, 1997). For Western blot of the immunoprecipitated proteins, tagged proteins were detected by chemiluminescence (ECL, Amersham, Arlington Heights, Ill.).
Smad2 heteromerizes with Smad4 upon phosphorylation by TβR-I (Lagna et al., 1996). It was recently shown that TGF-β also induces association of Smad2 and Smad3 (Nakao et al., EMBO. J. 16:5353-5362, 1997). The effect of Smad6 on the heteromerization of these Smads was examined (FIG. 4). COS-7 cells were transfected with the indicated combination of plasmids and subjected to immunoprecipitation followed by Western blot detection. Expression levels of Smad2 (bottom), Smad4 (middle), and Smad6 (middle) were monitored.
For orientation: A western blot detects proteins with antibodies after separation by electrophoresis.

B1: FLAG-tagged Smad2 (other, not shown: small tags and cut ends)
chain: SSILPFTPPVVKRLLGWKKSAGGSGGAGGGEQNGQEEKWCQKAVKSLVKKLKKTGRLDELEKAITTQNCNTKCVTIPSTCSEIWGLSTANTVDQWDTTGLYSFSEQTRSLDGRLQVSHRKGLPHVIYCRLWRWPDLHSHHELKAIENCEYAFNLKKDEVCVNPYHYQRVETPVLPPVLVPRHTEILTELPPLDDYTHSIPENTNFPAGIEPQSNYIPETPPPGYISEDGETSDQQLNQSMDTGSPAELSPTTLSPVNHSLDLQPVTYSEPAFWCSIAYYELNQRVGETFHASQPSLTVDGFTDPSNSERFCLGLLSNVNRNATVEMTRRHIGRGVRLYYIGGEVFAECLSDSAIFVQSPNCNQRYGWHPATVCKIPPGCNLKIFNNQEFAALLAQSVNQGFEAVYQLTRMCTIRMSFVKGWGAEYRRQTVTSTPCWIELHLNGPLQWLDKVLTQMGSPSVRCSSMS
notes: Expressed inside COS-7 cells; also called F-Smad2
On to B1, for which the binding result in assay [1] was “no binding”.

B2: Smad2 (epitope-tagged, heteromerization experiment of Example 4) (other, not shown: small tags and cut ends)
chain: SSILPFTPPVVKRLLGWKKSAGGSGGAGGGEQNGQEEKWCQKAVKSLVKKLKKTGRLDELEKAITTQNCNTKCVTIPSTCSEIWGLSTANTVDQWDTTGLYSFSEQTRSLDGRLQVSHRKGLPHVIYCRLWRWPDLHSHHELKAIENCEYAFNLKKDEVCVNPYHYQRVETPVLPPVLVPRHTEILTELPPLDDYTHSIPENTNFPAGIEPQSNYIPETPPPGYISEDGETSDQQLNQSMDTGSPAELSPTTLSPVNHSLDLQPVTYSEPAFWCSIAYYELNQRVGETFHASQPSLTVDGFTDPSNSERFCLGLLSNVNRNATVEMTRRHIGRGVRLYYIGGEVFAECLSDSAIFVQSPNCNQRYGWHPATVCKIPPGCNLKIFNNQEFAALLAQSVNQGFEAVYQLTRMCTIRMSFVKGWGAEYRRQTVTSTPCWIELHLNGPLQWLDKVLTQMGSPSVRCSSMS
In the case of B2, the binding result in assay [2] is “no binding”.
